{
  "source": "paper PMC6703679",
  "binders": {"B1": {"name": "glycine receptor α1^ins subunit, endogenous in mouse spinal dorsal horn (receptor)", "chain": "ARSAPKPMSPSDFLDKLMGRTSGYDARIRPNFKGPPVNVSCNIFINSFGSIAETTMDYRVNIFLRQQWNDPRLAYNEYPDDSLDLDPSMLDSIWKPDLFFANEKGAHFHEITTDNKLLRISRNGNVLYSIRITLTLACPMDLKNFPMDVQTCIMQLESFGYTMNDLIFEWQEQGAVQVADGLTLPQFILKEEKDLRYCTKHYNTGKFTCIEARFHLERQMGYYLIQMYIPSLLIVILSWISFWINMDAAPARVGLGITTVLTMTTQSSGSRASLPKVSYVKAIDIWMAVCLLFVFSALLEYAAVNFVSRQHKELLRFRRKRRHHKSPMLNLFQDDEGGEGRFNFSAYGMGPACLQAKDGISVKGANNNNTTNPPPAPSKSPEEMRKLFIQRAKKIDKISRIGFPMAFLIFNMFYWIIYKIVRREDVHNK"}},
  "target": "extracellular signal-regulated kinase (ERK1/2), endogenous in mouse spinal dorsal horn (mouse (endogenous in spinal dorsal horn)) (UniProt P63085)",
  "data": [
    {"binder": "B1", "values": [
      {"measurement": "GlyR-IPSCs in spinal slices from formalin-injected mice, with bath application of TAT-pep-α1^ins (% of baseline)", "result": 145}
    ]}
  ]
}
